Experimental data published in US7537932.

Molecular target: mouse Flt3 receptor on Baflt cells (Ba/F3 cells stably transfected with Flt3 cDNA) (mouse) (UniProt Q00342)
Experiment: cell-based or functional assay

UniProt Q00342, sequence (Q00342 28-1000): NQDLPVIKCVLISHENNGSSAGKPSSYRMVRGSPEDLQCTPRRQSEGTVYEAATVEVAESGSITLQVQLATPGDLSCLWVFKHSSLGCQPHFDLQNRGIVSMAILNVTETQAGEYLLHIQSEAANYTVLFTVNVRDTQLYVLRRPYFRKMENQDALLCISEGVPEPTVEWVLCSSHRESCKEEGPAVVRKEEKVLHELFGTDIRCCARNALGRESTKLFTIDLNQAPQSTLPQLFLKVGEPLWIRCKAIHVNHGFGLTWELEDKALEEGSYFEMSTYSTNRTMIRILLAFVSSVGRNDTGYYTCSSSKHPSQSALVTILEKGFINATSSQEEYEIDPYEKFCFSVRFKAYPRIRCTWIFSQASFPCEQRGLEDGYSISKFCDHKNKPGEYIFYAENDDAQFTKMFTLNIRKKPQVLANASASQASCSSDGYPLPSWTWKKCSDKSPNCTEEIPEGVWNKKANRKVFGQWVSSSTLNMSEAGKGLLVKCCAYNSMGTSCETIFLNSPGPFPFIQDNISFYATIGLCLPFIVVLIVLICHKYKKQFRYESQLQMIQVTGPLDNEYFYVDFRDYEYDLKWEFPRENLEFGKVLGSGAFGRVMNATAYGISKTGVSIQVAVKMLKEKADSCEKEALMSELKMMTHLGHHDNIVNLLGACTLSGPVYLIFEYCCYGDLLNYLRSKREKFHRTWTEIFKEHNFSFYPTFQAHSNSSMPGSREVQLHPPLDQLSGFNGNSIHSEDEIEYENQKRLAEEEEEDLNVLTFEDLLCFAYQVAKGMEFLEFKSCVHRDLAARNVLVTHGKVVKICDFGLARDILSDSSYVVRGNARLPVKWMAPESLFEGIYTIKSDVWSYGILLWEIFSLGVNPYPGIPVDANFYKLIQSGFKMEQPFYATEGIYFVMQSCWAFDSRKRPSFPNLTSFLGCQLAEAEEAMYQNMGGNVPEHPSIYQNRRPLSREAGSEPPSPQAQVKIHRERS

specific activity in the bioassay (MTT assay, Baflt minus Ba/F3): 3e+06 units/mg
Substance: purified native mouse Flt3 ligand (naturally occurring soluble form from TA4 thymic stromal cell conditioned medium) (from UniProt P49772 27-189)
specific activity on the Baf assay (MTT survival assay, Baflt minus Baf signal) (Units per milligram): 1e+07
